Paper PMC7556403

How the values were obtained:
MBP–APO1 mSOL (human) = MBP–APO1 mSOL (human) (UniProt P41238); assay: SEC; MBP–APO1 fusion proteins; SEC in 20 mM HEPES pH 7.5, 500 mM NaCl, 0.5 mM TCEP
MBP–APO1 mXT (human) [1] = target: MBP–APO1 mXT (human) (UniProt P41238); assay: as above
MBP–APO1 mXT (human) [2] = target: MBP–APO1 mXT (human) (UniProt P41238); assay: SEC-MALS; MBP–APO1 fusions with Leu, Gln or Ala at position 173; SEC and MALS
[3] = target: MBP–APO1 mXT-173L (human) (UniProt P41238); assay: as above
[4] = target: MBP–APO1 mXT-173Q (human) (UniProt P41238); assay: as above

MBP–APO1 mSOL (from UniProt P41238 1-236) (enzyme)
stoichiometry N (MBP–APO1 mSOL (human)): 2

MBP–APO1 mXT (from UniProt P41238 15-236) (enzyme)
stoichiometry N (MBP–APO1 mXT (human) [1]): 2 | stoichiometry N (MBP–APO1 mXT (human) [2]): 2

MBP–APO1 mXT-173L (from UniProt P41238 15-236) (enzyme)
stoichiometry N [3]: 2

MBP–APO1 mXT-173Q (from UniProt P41238 15-236) (enzyme)
percent in the dimer peak [4]: 1 to 2%
